What all share (experiment): flow cytometry, Fab 0.25 µg/mL on HEK-293T cells expressing the mutant
A general note: Flow cytometry measures light scatter and fluorescence of single cells or particles in a stream.

The target of one assay is T1, human CD116 T187A (human, UniProt P15509 23-400).
T1 construct: whole, on cells
T1 sequence (looked up): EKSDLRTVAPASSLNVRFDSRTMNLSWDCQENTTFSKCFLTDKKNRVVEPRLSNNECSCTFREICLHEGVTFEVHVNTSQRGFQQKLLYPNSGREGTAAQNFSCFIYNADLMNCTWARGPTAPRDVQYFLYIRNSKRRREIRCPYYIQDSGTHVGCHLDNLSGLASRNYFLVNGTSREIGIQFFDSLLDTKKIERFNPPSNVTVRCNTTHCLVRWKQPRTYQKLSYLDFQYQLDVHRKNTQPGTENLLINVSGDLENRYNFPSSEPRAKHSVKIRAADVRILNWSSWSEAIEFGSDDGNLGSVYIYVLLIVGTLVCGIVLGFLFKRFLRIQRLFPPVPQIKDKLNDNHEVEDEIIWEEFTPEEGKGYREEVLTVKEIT

Another assay deals with T2, human CD116 K213A (human, UniProt P15509 23-400).
T2 construct: whole, on cells
T2 sequence (looked up): T1 sequence (looked up) with A165T, K191A

Another assay has as its target T3, human CD116 L249A (human, UniProt P15509 23-400).
T3 construct: whole, on cells
T3 sequence (looked up): T1 sequence (looked up) with A165T, L227A

The next assay addresses T4, human CD116 D250A (human, UniProt P15509 23-400).
T4 construct: whole, on cells
T4 sequence (looked up): T1 sequence (looked up) with A165T, D228A

The target of the next assay is T5, human CD116 D300A (human, UniProt P15509 23-400).
T5 construct: whole, on cells
T5 sequence (looked up): T1 sequence (looked up) with A165T, D278A

Another assay addresses T6, human CD116 R302A (human, UniProt P15509 23-400).
T6 construct: whole, on cells
T6 sequence (looked up): T1 sequence (looked up) with A165T, R280A

Changes are numbered by the printed parent chain.

B1: anti-CD116 antibody 116-408, Fab (Fab, V domains shown)
VH: EVQLVQSGAEVKKPGASVKVSCKVSGYTLTDLSMHWVRQAPGKGLEWMGGFDPEDGERIYAQKFQGRVTMTEDTSTDTAYMELSSLRSEDTAVYYCATGLFYYYYGMDVWGQGTMVTVSS
VL: not shown
For B1, the “Binding Reactivity (% WT)” value was found to be 16.2 % WT with human CD116 T187A; 98.4 % WT with human CD116 K213A; 92.4 % WT with human CD116 L249A; 95.8 % WT in the assay with human CD116 D250A; 84.8 % WT with human CD116 D300A; 93.8 % WT with human CD116 R302A.
